Numbering of substitutions follows the chain as printed.
Experiments:
Experiment in all cases: flow cytometry on cells
[1] = biological target: T1, C-terminally truncated Ste2p V49D (Saccharomyces cerevisiae, UniProt D6VTK4 1-303, V49D)
T1 sequence (looked up): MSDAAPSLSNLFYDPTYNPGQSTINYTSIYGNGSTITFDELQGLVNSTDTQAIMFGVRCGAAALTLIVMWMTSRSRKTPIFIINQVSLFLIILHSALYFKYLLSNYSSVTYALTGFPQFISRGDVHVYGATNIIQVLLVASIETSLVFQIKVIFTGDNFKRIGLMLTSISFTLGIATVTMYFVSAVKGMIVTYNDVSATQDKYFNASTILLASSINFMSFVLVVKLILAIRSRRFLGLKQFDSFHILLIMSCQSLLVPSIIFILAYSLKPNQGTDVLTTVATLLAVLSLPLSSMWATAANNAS

[2] = biological target: T2, C-terminally truncated Ste2p S95Y (Saccharomyces cerevisiae, UniProt D6VTK4 1-303, S95Y)
T2 sequence (looked up): T1 sequence (looked up) with D49V, S95Y

full-length Ste2p H94Y = biological target: T3, full-length Ste2p H94Y (Saccharomyces cerevisiae, UniProt D6VTK4 1-431, H94Y)
T3 sequence (looked up): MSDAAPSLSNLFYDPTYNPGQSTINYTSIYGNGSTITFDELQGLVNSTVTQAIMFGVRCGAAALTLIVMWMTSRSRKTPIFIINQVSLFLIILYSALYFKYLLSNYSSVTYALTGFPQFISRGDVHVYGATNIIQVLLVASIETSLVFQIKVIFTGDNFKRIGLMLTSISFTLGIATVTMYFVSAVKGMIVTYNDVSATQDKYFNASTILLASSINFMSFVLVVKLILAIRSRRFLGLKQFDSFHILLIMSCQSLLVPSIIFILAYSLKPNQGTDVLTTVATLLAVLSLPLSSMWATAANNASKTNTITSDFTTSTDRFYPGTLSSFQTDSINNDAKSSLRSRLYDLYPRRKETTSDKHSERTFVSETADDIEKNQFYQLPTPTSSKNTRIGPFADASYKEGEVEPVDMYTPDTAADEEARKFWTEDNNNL

full-length Ste2p S104Y = biological target: T4, full-length Ste2p S104Y (Saccharomyces cerevisiae, UniProt D6VTK4 1-431, S104Y)
T4 sequence (looked up): T3 sequence (looked up) with Y94H, S104Y

full-length Ste2p L211R = biological target: T5, full-length Ste2p L211R (Saccharomyces cerevisiae, UniProt D6VTK4 1-431, L211R)
T5 sequence (looked up): T3 sequence (looked up) with Y94H, L211R

- Kd [1]: 23 ± 3.3 nM
- Kd [2]: 8.1 ± 7.5 nM
- Kd (full-length Ste2p H94Y): 5.2 ± 2.1 nM
- Kd (full-length Ste2p S104Y): 2 ± 0.7 nM
- Kd (full-length Ste2p L211R): 0.8 ± 0.1 nM
B1: [K^7(NBD),Nle^12] α-factor (peptide)
chain: WHWLQLKPGQPMY
modifications: NBD (7-nitrobenz-2-oxa-1,3-diazol-4-yl) conjugated to the lysine at position 7; norleucine at position 12 in place of methionine

Reference: article PMC4405178 (Biochemistry, 2015)
